Laboratory results from patent US20210147541A1 (Kyowa Kirin, published 2021).
Residue numbers refer to the chain shown, from its start. In names and notes the source's numbering stands. Read-outs that look alike come from different tables or passages of the source.

T1: human CADM3 (human, UniProt Q8N126 25-398)
T1 construct: Full-length gene expressed transiently on Expi293F cells; also called cell adhesion molecule 3; human CADM3/Expi293F cells
T1 sequence: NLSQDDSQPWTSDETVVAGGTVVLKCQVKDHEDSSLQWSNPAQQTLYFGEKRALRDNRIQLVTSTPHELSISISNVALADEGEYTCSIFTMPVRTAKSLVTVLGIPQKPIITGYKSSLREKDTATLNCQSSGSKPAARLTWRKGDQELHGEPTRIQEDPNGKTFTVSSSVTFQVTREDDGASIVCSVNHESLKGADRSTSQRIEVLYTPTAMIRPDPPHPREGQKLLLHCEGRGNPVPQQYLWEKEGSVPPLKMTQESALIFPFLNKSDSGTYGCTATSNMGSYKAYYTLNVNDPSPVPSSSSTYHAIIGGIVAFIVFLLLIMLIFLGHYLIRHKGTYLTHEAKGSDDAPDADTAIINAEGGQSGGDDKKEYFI

T2: mouse CADM3 (mouse, UniProt Q99N28 23-396)
T2 construct: Full-length gene expressed transiently on Expi293F cells; also called mouse CADM3/Expi293F cells; Mouse CADM3-expressing cells
T2 sequence: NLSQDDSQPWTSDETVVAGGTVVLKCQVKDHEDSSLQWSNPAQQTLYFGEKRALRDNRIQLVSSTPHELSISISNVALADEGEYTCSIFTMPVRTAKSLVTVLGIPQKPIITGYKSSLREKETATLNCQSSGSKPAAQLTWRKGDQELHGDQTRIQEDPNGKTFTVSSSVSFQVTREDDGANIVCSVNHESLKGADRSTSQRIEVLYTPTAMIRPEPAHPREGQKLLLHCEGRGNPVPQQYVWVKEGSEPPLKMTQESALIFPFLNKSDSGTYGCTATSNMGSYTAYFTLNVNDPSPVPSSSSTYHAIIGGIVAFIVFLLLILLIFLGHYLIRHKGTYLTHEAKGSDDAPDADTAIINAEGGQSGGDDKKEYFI

B1: iCADM3_3R1-L5 (VHH)
VHH: QVQLVESGGGLVQAGGSLRLSCAASGSIVSVNAMGWYRQAPGKQRELVATITSGGSTNYADSAKGRFTISRDNAKNTMYLQMNSLKPEDTAVYYCNGEFWSRRDTRPPGVVNYWGQGTQVTVSS
notes: also called iCADM3-3R1-L5 antibody; anti-CADM3 VHH antibody (phage clone)
B2: iCADM3_3R1-L8_04 VHH-hG4PE(R409K) (Fc fusion)
chain: QVQLVESGGGLVQPGGSLRLSCAASGRTFSNYARGWFRQAPGKEREFVAAIDYSGGSTNYADSAKGRFTISRDNSKNTVYLQMNSLRAEDTAVYYCAAPASRRPSWDADGYDYWGQGTLVTVSS
notes: also called iCADM3-3R1-L8_04 humanized antibody; not shown: Hinge-CH2-CH3 region of the human IgG4 heavy chain constant region (IgG4 variant)
B3: iCADM3_3R1-L8_03 VHH-hG4PE(R409K) (Fc fusion)
chain: B2 chain with E44G
notes: also called iCADM3-3R1-L8_03 humanized antibody; not shown: Hinge-CH2-CH3 region of the human IgG4 heavy chain constant region (IgG4 variant)
B4: iCADM3_3R1-L8_02 VHH-hG4PE(R409K) (Fc fusion)
chain: B2 chain with E6Q, V79L
notes: also called iCADM3-3R1-L8_02 humanized antibody; not shown: Hinge-CH2-CH3 region of the human IgG4 heavy chain constant region (IgG4 variant)
B5: iCADM3_3R1-L8_01 VHH-hG4PE(R409K) (Fc fusion)
chain: B2 chain with E6Q, E44G, V79L
notes: also called iCADM3-3R1-L8_01 humanized antibody; not shown: Hinge-CH2-CH3 region of the human IgG4 heavy chain constant region (IgG4 variant)
B6: iCADM3_3R1-L8 VHH-hG4PE(R409K) (Fc fusion)
chain: B2 chain with S75A, R87K, A88P, E89G, L119Q
notes: VHH-Fc antibody; also called anti-CADM3 VHH-Fc antibody iCADM3_3R1-L8; not shown: Hinge-CH2-CH3 region of the human IgG4 heavy chain constant region (IgG4 variant)
B7: CADM3448 hG4PE(R409K) (antibody, V domains shown)
VH: QVQLQQSGPGLVKPAQTLSLTCAISGDSVSSNSVAWNWVRQSPSRGLEWLGRTYYRSQWYNDYAGSVRSRITISADTSKNQFSLQLNSVTPEDTALYYCVRANRKLPAPGQHFYYGMDVWGQGTTVTVSS
VL: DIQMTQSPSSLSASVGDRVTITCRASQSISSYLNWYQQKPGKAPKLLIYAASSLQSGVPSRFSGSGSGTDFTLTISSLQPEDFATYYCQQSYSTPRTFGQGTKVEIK
notes: Human IgG4 variant (S228P, L235E, R409K), vector pCI-hKG4PE(R409K)
B8: iCADM3_3R1-L11_02 VHH-hG4PE(R409K) (Fc fusion)
chain: EVQLVESGGGLIQPGGSLRLSCAASGSTVSFNAMGWYRQAPGKGRVLVAVITSGGYTNYADSVKGRFTISRDNSKNTVYLQMNSLRAEDTAVYYCNAEGVYSDYVIMNYWGQGTLVTVSS
notes: also called iCADM3-3R1-L11_02 humanized antibody; not shown: Hinge-CH2-CH3 region of the human IgG4 heavy chain constant region (IgG4 variant)
B9: iCADM3_3R1-L11_05 VHH-hG4PE(R409K) (Fc fusion)
chain: B8 chain with T28I, V29F
notes: also called iCADM3-3R1-L11_05 humanized antibody; not shown: Hinge-CH2-CH3 region of the human IgG4 heavy chain constant region (IgG4 variant)

What was measured:
mCADM3-GST [1] = molecular target: T3, mCADM3-GST (mouse); assay: phage ELISA, mCADM3-GST immobilized
T3 construct: also called extracellular domain of mouse CADM3 to which GST was added at the C-terminal side; mouse CADM3-GST
Experimental: (§1) In the ELISA, hCADM3-GST and mCADM3-GST were immobilized (50 ng/50 μL) on MAXISORP (manufactured by NUNC, Inc.), followed by blocking using 0.5% BSA. To each well, each phage clone was added and allowed to react at room temperature for 1 hour, and thereafter, each well was washed 5 times with PBS-T. Subsequently, a biotinylated anti-M13 phage antibody (manufactured by Abcam plc) and horseradish peroxidase-labeled streptavidin (manufactured by Vector Co., Ltd.) were added to each well in an amount of 50 μL, followed by incubation at room temperature for 1 hour.
(§2) After the microplate was washed with PBS-T, a 3,3′,5,5′-tetramethylbenzidine (TMB) chromogenic substrate solution (manufactured by Calbiochem, Inc.) was added to each well, followed by incubation at room temperature. The coloring reaction was stopped by adding a 1 mol/L hydrochloric acid to each well, and an absorbance at a wavelength of 450 nm (reference wavelength: 570 nm) was measured using a microplate reader.

hCADM3-GST [2] = molecular target: T4, hCADM3-GST (human); assay: phage ELISA, hCADM3-GST immobilized
T4 construct: also called extracellular domain of human CADM3 to which GST was added at the C-terminal side; human CADM3-GST
Experimental: as §1, §2

human CADM3 [3] = molecular target: T1, human CADM3; assay: flow cytometry, 10 ug/mL, human CADM3/Expi293F vs parent Expi293F cells
Experimental: (§3) After washing with SB, the cells were suspended in SB, and the fluorescence intensity of each cell was measured using a flow cytometer FACS CANTO II (manufactured by Becton, Dickinson and Company). Note that as a negative control, 10 μg/mL of the anti-AVM antibody was used.
(§4) The detection results were analyzed, and a mean fluorescence intensity (MFI) was calculated using a geometric mean. Further, with respect to the MFI when the concentration of each antibody was 10 μg/mL, the ratio of the MFI (mean fluorescence intensity ratio) between the human CADM3/Expi293F cells and the Expi293F cells (parent cell line) was calculated.
(§5) With respect to the produced humanized anti-CADM3 VHH-Fc antibodies, reactivity with Expi293F cells, human CADM3/Expi293F cells, and mouse CADM3/Expi293F cells was analyzed by the same procedure as in Example 3.

hCADM3-GST [4] = molecular target: T4, hCADM3-GST; assay: SPR (Biacore T-100), antibody captured, hCADM3-GST as analyte
Experimental: (§6) The affinity of the anti-CADM3 antibodies produced in Example 2 for human CADM3 and mouse CADM3 was measured using Biacore T-100 (GE Healthcare). Each of the antibodies was immobilized on a […] sensor chip using a Human antibody Capture kit, and the binding ability was evaluated using hCADM3-GST and mCADM3-GST produced in Example 4 as analytes.
(§7) With respect to the produced humanized anti-CADM3 antibodies, affinity for CADM3 by surface plasmon resonance detection was evaluated by the same procedure as in Example 6.

mouse CADM3 [5] = molecular target: T2, mouse CADM3; assay: flow cytometry, 10 ug/mL, mouse CADM3/Expi293F vs parent Expi293F cells
Experimental: as §3, §4, §5

mCADM3-GST [6] = molecular target: T3, mCADM3-GST; assay: SPR (Biacore T-100), antibody captured, mCADM3-GST as analyte
Experimental: as §6, §7

mouse CADM3 [7] = molecular target: T2, mouse CADM3; assay: flow cytometry, 10 ug/mL, mouse CADM3/Expi293F vs parent Expi293F cells; remark: listed apart in the source
human CADM3 [8] = molecular target: T1, human CADM3; assay: flow cytometry, 10 ug/mL, human CADM3/Expi293F vs parent Expi293F cells; remark: listed apart in the source
Experimental: By using the cells, the reactivity of the antibodies produced in Example 2 with the CADM3-expressing cells was analyzed by a fluorescence activated cell sorting (FACS) method according to the following procedure.
as §3, §4

hCADM3-GST [9] = molecular target: T4, hCADM3-GST; assay: SPR (Biacore T-100), antibody captured, hCADM3-GST as analyte; remark: listed apart in the source
Experimental: as §6
(§8) The obtained sensorgram was analyzed with BIA evaluation software, and the dissociation constant (KD value) was calculated.

mCADM3-GST [10] = molecular target: T3, mCADM3-GST; assay: SPR (Biacore T-100), antibody captured, mCADM3-GST as analyte; remark: listed apart in the source
Experimental: as §6, §8

mouse CADM3 [11] = molecular target: T2, mouse CADM3; assay: flow cytometry, 10 ug/mL, mouse CADM3/Expi293F vs parent Expi293F cells; remark: listed apart in the source
Experimental: as §3, §4, §5

Row | Binder | Mean fluorescence intensity ratio (human CADM3 [3]) | Kd (hCADM3-GST [4]) [nM] | koff (hCADM3-GST [4]) [s⁻¹] | kon (hCADM3-GST [4]) [M⁻¹ s⁻¹] | Mean fluorescence intensity ratio (mouse CADM3 [5]) | Kd (mCADM3-GST [6]) [nM] | koff (mCADM3-GST [6]) [s⁻¹] | kon (mCADM3-GST [6]) [M⁻¹ s⁻¹] | also measured
1 | B1 |  |  |  |  |  |  |  |  | binding result (mCADM3-GST [1]): binds; binding result (hCADM3-GST [2]): binds
2 | B2 | 6.2 | 5.34 | 0.00078 | 150000 | 9.62 | 5.22 | 0.00064 | 120000 | 
3 | B3 | 5.65 | 10.3 | 0.0019 | 190000 | 8.54 | 7.38 | 0.0011 | 150000 | 
4 | B4 | 2.8 |  |  |  | 4.83 |  |  |  | 
5 | B5 | 2.21 |  |  |  | 3.71 |  |  |  | 
6 | B6 |  | 12.5 | 0.00051 | 41000 |  | 4.39 | 0.00063 | 140000 | Mean fluorescence intensity ratio (mouse CADM3 [7]): 8.2; Mean fluorescence intensity ratio (human CADM3 [8]): 5.84
7 | B7 |  |  |  |  |  |  |  |  | Mean fluorescence intensity ratio (mouse CADM3 [7]): 10.4; binding result (hCADM3-GST [9]): binds; binding result (mCADM3-GST [10]): binds; Mean fluorescence intensity ratio (human CADM3 [8]): 9.4
8 | B8 | 12.4 |  |  |  |  |  |  |  | Mean fluorescence intensity ratio (mouse CADM3 [11]): 27.9
9 | B9 | 11.1 |  |  |  |  |  |  |  | Mean fluorescence intensity ratio (mouse CADM3 [11]): 24.6
